Source: publication PMC10960309

Assays:
Assay in all cases: purified protein
Details in all cases: 50 mM sodium borate pH 9.5, 37°C, 1.9 mM OPA, 1 mM DTT, 5% DMSO
purified protein [1] = substrate: CCCCCCCC(=O)N[C@H]1CCOC1=O
purified protein [2] = substrate: CCCCCCCCCC(=O)CC(=O)N[C@H]1CCOC1=O
purified protein [3] = substrate: CCCCCCCCCC(=O)N[C@H]1CCOC1=O
purified protein [4] = substrate: CCCCCCCCCCCC(=O)N[C@H]1CCOC1=O

B1: PvdQ (Pseudomonas aeruginosa PAO1) (protein)
chain 1: DMPRPTGLAADIRWTAYGVPHIRAKDERGLGYGIGYAYARDNACLLAEEIVTARGERARYFGSEGKSSAELDNLPSDIFYAWLNQPEALQAFWQAQTPAVRQLLEGYAAGFNRFLREADGKTTSCLGQPWLRAIATDDLLRLTRRLLVEGGVGQFADALVAAAPPGAEKV
chain 2: SNAIAVGSERSADGKGMLLANPHFPWNGAMRFYQMHLTIPGRLDVMGASLPGLPVVNIGFSRHLAWTHTVDTSSHFTLYRLALDPKDPRRYLVDGRSLPLEEKSVAIEVRGADGKLSRVEHKVYQSIYGPLVVWPGKLDWNRSEAYALRDANLENTRVLQQWYSINQASDVADLRRRVEALQGIPWVNTLAADEQGNALYMNQSVVPYLKPELIPACAIPQLVAEGLPALQGQDSRCAWSRDPAAAQAGITPAAQLPVLLRRDFVQNSNDSAWLTNPASPLQGFSPLVSQEKPIGPRARYALSRLQGKQPLEAKTLEEMVTANHVFSADQVLPDLLRLCRDNQGEKSLARACAALAQWDRGANLDSGSGFVYFQRFMQRFAELDGAWKEPFDAQRPLDTPQGIALDRPQVATQVRQALADAAAEVEKSGIPDGARWGDLQVSTRGQERIAIPGGDGHFGVYNAIQSVRKGDHLEVVGGTSYIQLVTFPEEGPKARGLLAFSQSSDPRSPHYRDQTELFSRQQWQTLPFSDRQIDADPQLQRLSIRE
With B1 the Km (purified protein [1]) was “(1.18 ± 0.34) × 10^2 μM”, the Km (purified protein [2]) was “(2.35 ± 0.07) × 10^2 μM” and the kcat (purified protein [2]) was 5.23 ± 0.55 s⁻¹. For the same protein, the kcat/Km (purified protein [2]) was 22200 ± 4000 M⁻¹ s⁻¹, the Km (purified protein [3]) was “(1.13 ± 0.42) × 10^2 μM” and the Km (purified protein [4]) was 98.1 ± 34.1 µM.
